Measurements as given in article PMC9482650, “Quantitative fragmentomics allow affinity mapping of interactomes” (Nature Communications, 2022).

T1: APBA3_1, O96018
T1 sequence (O96018 389-490, limits assumed, looked up): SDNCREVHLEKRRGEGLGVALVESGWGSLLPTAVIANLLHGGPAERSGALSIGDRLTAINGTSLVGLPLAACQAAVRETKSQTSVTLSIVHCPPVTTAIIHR

T2: DLG3_3, Q92796
T2 sequence (Q92796 374-475, limits assumed, looked up): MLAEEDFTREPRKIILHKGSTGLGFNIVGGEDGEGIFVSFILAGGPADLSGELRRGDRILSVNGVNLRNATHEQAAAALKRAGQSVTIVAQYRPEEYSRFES

T3: LNX2_3, Q8N448
T3 sequence (Q8N448 463-564, limits assumed, looked up): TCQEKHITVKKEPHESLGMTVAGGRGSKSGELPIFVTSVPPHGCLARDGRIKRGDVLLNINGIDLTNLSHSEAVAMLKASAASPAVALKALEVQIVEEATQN

T4: LRRC7, Q96NW7
T4 sequence (Q96NW7 1440-1537, limits assumed, looked up): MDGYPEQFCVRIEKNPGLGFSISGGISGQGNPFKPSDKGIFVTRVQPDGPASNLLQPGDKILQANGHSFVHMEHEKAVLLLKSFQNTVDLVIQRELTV

T5: NHERF3_4, Q5T2W1
T5 sequence (Q5T2W1 373-468, limits assumed, looked up): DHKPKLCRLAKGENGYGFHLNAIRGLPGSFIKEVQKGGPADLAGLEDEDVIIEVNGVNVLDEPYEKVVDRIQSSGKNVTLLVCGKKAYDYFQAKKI

T6: PDZD2_2, O15018
T6 sequence (O15018 329-429, limits assumed, looked up): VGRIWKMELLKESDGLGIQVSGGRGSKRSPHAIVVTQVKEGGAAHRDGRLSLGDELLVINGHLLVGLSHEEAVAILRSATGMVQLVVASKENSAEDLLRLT

T7: PDZRN3_1, Q9UPQ7
T7 sequence (Q9UPQ7 244-349, limits assumed, looked up): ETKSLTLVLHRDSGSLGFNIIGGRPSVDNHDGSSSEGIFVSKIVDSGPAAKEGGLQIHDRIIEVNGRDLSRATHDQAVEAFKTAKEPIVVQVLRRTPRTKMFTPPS

T8: SHANK1, Q9Y566
T8 sequence (Q9Y566 658-767, limits assumed, looked up): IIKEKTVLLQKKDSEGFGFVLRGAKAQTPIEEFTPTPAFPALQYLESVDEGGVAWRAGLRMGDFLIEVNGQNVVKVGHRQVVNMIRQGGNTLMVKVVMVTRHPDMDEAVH

T9: SIPA1L2, Q9P2F8
T9 sequence (Q9P2F8 945-1036, limits assumed, looked up): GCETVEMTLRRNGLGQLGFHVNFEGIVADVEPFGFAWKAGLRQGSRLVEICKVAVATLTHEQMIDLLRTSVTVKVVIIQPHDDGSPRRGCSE


Key:
Assay in all cases: holdup assay
Design in all cases: key: below the threshold = too weak to quantify, mostly under pKd 3.1 to 4
Settings in all cases: plain residues with an end cap or a label only (N-terminal biotin on a linker: ado-ado)
AHNAK1, Q09666 = target: AHNAK1, Q09666
Sequence of AHNAK1, Q09666 (Q09666 4-100): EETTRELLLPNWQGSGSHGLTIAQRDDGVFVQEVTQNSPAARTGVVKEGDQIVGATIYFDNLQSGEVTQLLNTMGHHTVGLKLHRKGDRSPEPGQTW

APBA3_1, O96018 = target: T1, APBA3_1, O96018
DLG3_3, Q92796 = target: T2, DLG3_3, Q92796
DLG4_3, P78352 = target: DLG4_3, P78352
Sequence of DLG4_3, P78352 (P78352 306-403): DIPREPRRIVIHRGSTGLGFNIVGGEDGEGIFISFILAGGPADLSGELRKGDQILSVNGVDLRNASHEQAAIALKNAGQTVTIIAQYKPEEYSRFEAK

DLG5_1, Q8TDM6 = target: DLG5_1, Q8TDM6
Sequence of DLG5_1, Q8TDM6 (Q8TDM6 617-713): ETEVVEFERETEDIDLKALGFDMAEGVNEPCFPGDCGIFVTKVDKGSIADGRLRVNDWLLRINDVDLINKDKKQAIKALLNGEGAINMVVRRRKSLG

FRMPD2_3, Q68DX3 = target: FRMPD2_3, Q68DX3
Sequence of FRMPD2_3, Q68DX3 (Q68DX3 1073-1166): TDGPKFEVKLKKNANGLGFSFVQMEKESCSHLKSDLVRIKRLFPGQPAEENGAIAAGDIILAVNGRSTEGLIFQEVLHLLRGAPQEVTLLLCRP

FRMPD4, Q14CM0 = target: FRMPD4, Q14CM0
Sequence of FRMPD4, Q14CM0 (Q14CM0 67-160): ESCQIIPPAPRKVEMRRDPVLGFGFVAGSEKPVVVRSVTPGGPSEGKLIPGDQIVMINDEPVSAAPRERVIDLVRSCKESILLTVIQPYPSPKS

GIPC2, Q8TF65 = target: GIPC2, Q8TF65
Sequence of GIPC2, Q8TF65 (Q8TF65 112-203): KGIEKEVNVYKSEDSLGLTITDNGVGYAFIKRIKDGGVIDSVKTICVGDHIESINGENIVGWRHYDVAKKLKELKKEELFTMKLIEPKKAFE

GORASP1, Q9BQQ3 = target: GORASP1, Q9BQQ3
Sequence of GORASP1, Q9BQQ3 (Q9BQQ3 1-208): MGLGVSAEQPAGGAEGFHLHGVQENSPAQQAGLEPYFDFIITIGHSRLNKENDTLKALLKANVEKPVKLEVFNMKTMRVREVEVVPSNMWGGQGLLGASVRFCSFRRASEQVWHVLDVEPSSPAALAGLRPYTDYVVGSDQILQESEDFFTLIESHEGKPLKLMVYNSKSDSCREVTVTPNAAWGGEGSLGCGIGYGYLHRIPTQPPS

GRID2IP_2, A4D2P6 = target: GRID2IP_2, A4D2P6
Sequence of GRID2IP_2, A4D2P6 (A4D2P6 272-370): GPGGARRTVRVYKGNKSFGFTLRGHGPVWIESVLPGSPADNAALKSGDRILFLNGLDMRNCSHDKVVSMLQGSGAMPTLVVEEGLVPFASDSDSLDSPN

IL16_3, Q14005 = target: IL16_3, Q14005
Sequence of IL16_3, Q14005 (Q14005 1107-1207): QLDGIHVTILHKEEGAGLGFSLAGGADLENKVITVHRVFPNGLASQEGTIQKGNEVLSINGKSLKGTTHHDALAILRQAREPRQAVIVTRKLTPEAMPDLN

Inadl_1, Q8NI35 = target: Inadl_1, Q8NI35
Sequence of Inadl_1, Q8NI35 (Q8NI35 113-229): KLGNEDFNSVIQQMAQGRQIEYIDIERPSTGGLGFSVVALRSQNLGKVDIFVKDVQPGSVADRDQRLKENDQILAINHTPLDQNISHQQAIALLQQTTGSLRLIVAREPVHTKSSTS

Inadl_4, Q8NI35 = target: Inadl_4, Q8NI35
Sequence of Inadl_4, Q8NI35 (Q8NI35 547-651): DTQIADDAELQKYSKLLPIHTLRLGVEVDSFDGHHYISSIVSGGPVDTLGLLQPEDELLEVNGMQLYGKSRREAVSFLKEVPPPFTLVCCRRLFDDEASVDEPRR

Inadl_5, Q8NI35 = target: Inadl_5, Q8NI35
Sequence of Inadl_5, Q8NI35 (Q8NI35 673-780): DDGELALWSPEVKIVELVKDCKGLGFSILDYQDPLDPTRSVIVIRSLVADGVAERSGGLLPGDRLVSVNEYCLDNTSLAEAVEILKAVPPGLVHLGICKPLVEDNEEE

Inadl_9, Q8NI35 = target: Inadl_9, Q8NI35
Sequence of Inadl_9, Q8NI35 (Q8NI35 1530-1615): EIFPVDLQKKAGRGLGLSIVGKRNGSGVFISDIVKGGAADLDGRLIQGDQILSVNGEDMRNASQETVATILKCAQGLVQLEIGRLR

LIMK2, P53671 = target: LIMK2, P53671
Sequence of LIMK2, P53671 (P53671 143-248): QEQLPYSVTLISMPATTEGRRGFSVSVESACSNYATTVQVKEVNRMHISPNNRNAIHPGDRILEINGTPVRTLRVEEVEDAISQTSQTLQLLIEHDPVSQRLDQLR

LNX1_3, Q8TBB1 = target: LNX1_3, Q8TBB1
Sequence of LNX1_3, Q8TBB1 (Q8TBB1 500-596): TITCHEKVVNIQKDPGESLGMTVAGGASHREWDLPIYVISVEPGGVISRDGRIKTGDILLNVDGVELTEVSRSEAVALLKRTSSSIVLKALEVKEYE

LNX2_3, Q8N448 = target: T3, LNX2_3, Q8N448
LRRC7, Q96NW7 = target: T4, LRRC7, Q96NW7
MAGI1_2, Q96QZ7 = target: MAGI1_2, Q96QZ7
Sequence of MAGI1_2, Q96QZ7 (Q96QZ7 456-580): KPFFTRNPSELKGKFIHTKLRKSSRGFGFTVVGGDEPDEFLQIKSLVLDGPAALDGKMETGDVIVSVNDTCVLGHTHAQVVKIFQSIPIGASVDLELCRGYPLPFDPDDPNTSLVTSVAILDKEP

NHERF3_4, Q5T2W1 = target: T5, NHERF3_4, Q5T2W1
NHERF4_4, Q86UT5 = target: NHERF4_4, Q86UT5
Sequence of NHERF4_4, Q86UT5 (Q86UT5 464-550): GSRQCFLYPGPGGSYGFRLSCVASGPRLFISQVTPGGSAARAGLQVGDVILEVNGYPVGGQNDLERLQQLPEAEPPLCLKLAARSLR

NOS1, P29475 = target: NOS1, P29475
Sequence of NOS1, P29475 (P29475 9-101): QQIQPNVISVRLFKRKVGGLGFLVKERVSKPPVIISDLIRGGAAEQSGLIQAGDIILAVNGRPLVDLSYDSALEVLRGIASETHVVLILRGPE

PDZD2_2, O15018 = target: T6, PDZD2_2, O15018
PDZRN3_1, Q9UPQ7 = target: T7, PDZRN3_1, Q9UPQ7
SHANK1, Q9Y566 = target: T8, SHANK1, Q9Y566
SIPA1L2, Q9P2F8 = target: T9, SIPA1L2, Q9P2F8
SNX27, Q96L92 = target: SNX27, Q96L92
TJP1_3, Q07157 = target: TJP1_3, Q07157
Sequence of TJP1_3, Q07157 (Q07157 416-512): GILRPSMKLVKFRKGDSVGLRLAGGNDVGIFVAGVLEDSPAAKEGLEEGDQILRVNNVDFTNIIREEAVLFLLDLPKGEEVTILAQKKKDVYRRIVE

Row | Binder | pKd (AHNAK1, Q09666) | pKd (APBA3_1, O96018) | pKd (DLG3_3, Q92796) | pKd (DLG4_3, P78352) | pKd (DLG5_1, Q8TDM6) | pKd (FRMPD2_3, Q68DX3) | pKd (FRMPD4, Q14CM0) | pKd (GIPC2, Q8TF65) | pKd (GORASP1, Q9BQQ3) | pKd (GRID2IP_2, A4D2P6) | pKd (IL16_3, Q14005) | pKd (Inadl_1, Q8NI35) | pKd (Inadl_4, Q8NI35) | pKd (Inadl_5, Q8NI35) | pKd (Inadl_9, Q8NI35) | pKd (LIMK2, P53671) | pKd (LNX1_3, Q8TBB1) | pKd (LNX2_3, Q8N448) | pKd (LRRC7, Q96NW7) | pKd (MAGI1_2, Q96QZ7) | further results
1 | GDGLDDEIAV [NOS1AP, O75052] | below the threshold | below the threshold | below the threshold | below the threshold | below the threshold | 3.82 | 4.43 | below the threshold | below the threshold | below the threshold | below the threshold | below the threshold | below the threshold | below the threshold | 3.69 | below the threshold | below the threshold | below the threshold | below the threshold | below the threshold | pKd (NHERF3_4, Q5T2W1): below the threshold; pKd (NHERF4_4, Q86UT5): below the threshold; pKd (NOS1, P29475): 3.8; pKd (PDZD2_2, O15018): 3.55; pKd (PDZRN3_1, Q9UPQ7): below the threshold; pKd (SHANK1, Q9Y566): below the threshold; pKd (SIPA1L2, Q9P2F8): below the threshold; pKd (SNX27, Q96L92): 4.19; pKd (TJP1_3, Q07157): below the threshold
2 | YPKQMPLSQV [FZD8, Q9H461] | below the threshold | below the threshold | below the threshold | below the threshold | below the threshold | below the threshold | below the threshold | below the threshold | below the threshold | 4.28 | below the threshold | below the threshold | below the threshold | below the threshold | below the threshold | below the threshold | below the threshold | below the threshold | below the threshold | 3.55 | pKd (NHERF3_4, Q5T2W1): below the threshold; pKd (NHERF4_4, Q86UT5): below the threshold; pKd (NOS1, P29475): below the threshold; pKd (PDZD2_2, O15018): 4.23; pKd (PDZRN3_1, Q9UPQ7): below the threshold; pKd (SHANK1, Q9Y566): below the threshold; pKd (SIPA1L2, Q9P2F8): below the threshold; pKd (SNX27, Q96L92): 3.97; pKd (TJP1_3, Q07157): below the threshold
3 | QNRIITKTDV [SMCHD1, A6NHR9] | below the threshold | below the threshold | below the threshold | below the threshold | below the threshold | below the threshold | below the threshold | below the threshold | below the threshold | 3.95 | below the threshold | below the threshold | below the threshold | below the threshold | 3.55 | below the threshold | below the threshold | below the threshold | below the threshold | 3.99 | pKd (NHERF3_4, Q5T2W1): below the threshold; pKd (NHERF4_4, Q86UT5): below the threshold; pKd (NOS1, P29475): below the threshold; pKd (PDZD2_2, O15018): 4.4; pKd (PDZRN3_1, Q9UPQ7): below the threshold; pKd (SHANK1, Q9Y566): below the threshold; pKd (SIPA1L2, Q9P2F8): below the threshold; pKd (SNX27, Q96L92): 3.84; pKd (TJP1_3, Q07157): below the threshold
